Data taken from patent publication US20220204994A1.

What was measured:
[1] = tested on: B2M13-14.479 engineered meganuclease (Artificial); assay: cell_activity; conditions: MC3 LNP repeat dose day 0 and day 3, ApoE, measured day 7; 22.62% in the comparison without repeat dosing
[2] = target: CD19 on Raji cells (B cell lymphoma line, Burkitt's Lymphoma) (UniProt P15391); assay: cell-based or functional assay
Sequence of UniProt P15391 (P15391 20-556 limits assumed): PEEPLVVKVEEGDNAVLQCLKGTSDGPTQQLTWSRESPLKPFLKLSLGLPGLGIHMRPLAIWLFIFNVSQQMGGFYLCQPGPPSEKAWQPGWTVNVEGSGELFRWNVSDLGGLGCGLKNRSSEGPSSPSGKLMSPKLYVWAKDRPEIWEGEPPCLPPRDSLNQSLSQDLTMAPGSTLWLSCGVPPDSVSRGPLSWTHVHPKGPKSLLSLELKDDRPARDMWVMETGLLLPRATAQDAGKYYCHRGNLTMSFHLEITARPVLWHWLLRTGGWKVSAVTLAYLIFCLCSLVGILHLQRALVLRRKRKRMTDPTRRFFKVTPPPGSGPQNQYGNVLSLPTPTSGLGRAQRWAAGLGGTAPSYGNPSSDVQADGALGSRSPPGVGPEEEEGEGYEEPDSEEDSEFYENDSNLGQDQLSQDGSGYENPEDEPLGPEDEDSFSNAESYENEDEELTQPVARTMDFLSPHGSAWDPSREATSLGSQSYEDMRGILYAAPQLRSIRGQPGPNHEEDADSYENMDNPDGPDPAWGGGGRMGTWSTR

B2M 13-14 recognition sequence (B2M gene)
activity (% B2M knockout) [1]: 26.4

anti-CD19 CAR (FMC63) expressed on human donor T cells after AAV6-7206 transduction
killing of CD19+ Raji cells in 16 h co-culture (CAR T cells made with AAV added 0-24 hours after LNP) [2]: 99%
killing of CD19+ Raji cells in 16 h co-culture (CAR T cells made with AAV added 24-48 hours after LNP) [2]: 94%
